{"source": "patent US6861578B1", "about": "“Method for plant protection against insects or nematodes by transformation with a nucleic acid encoding equistatin” (Plant Research International B.V., priority 1997, dated 2005)", "binders": {"B1": {"name": "equistatin, isolated from sea anemone Actinia equina (protein)", "chain": "SLTLCGGLGASAASGLIGTTVPGCLGTGGPGGLGCTGSTGTCTCVAGAGLGILGTLIAGSPACSAALAALTLCGMMGAIIVAVPGTCGPPSCLAAGSPAGVGCCASAGGCTCVALLGLGLGGTAGGGAPTCGAHLSGCGGAAILAHSASLAVGMPVPGCLGAGSTAPVGCTPSTGTCTCVAGGGVLVPGSAVAPLAPTC"}, "B2": {"name": "recombinant equistatin (expressed in E. coli from pB3-equistatin, purified on papain-sepharose) (other, not shown: large carriers; small tags and cut ends)", "chain": "SLTKCQQLQASANSGLIGTYVPQCKETGEFEEKQCWGSTGYCWCVDEDGKEILGTKIRGSPDCSRRKAALTLCQMMQAIIVNVPGWCGPPSCKADGSFDEVQCCASNGECYCVDKKGKELEGTRQQGRPTCERHLSECEEARIKAHSNSLRVEMFVPECLEDGSYNPVQCWPSTGYCWCVDEGGVKVPGSDVRFKRPTC", "notes": "also called EI"}}, "key": {"[1]": {"target": "proteases in extracts of adult western flower thrips (Frankliniella occidentalis)", "assay": "cell-based or functional assay"}, "[2]": {"target": "potato protease inhibitor-insensitive cysteine proteases of Colorado potato beetle (Leptinotarsa decemlineata) larval gut extracts", "assay": "cell-based or functional assay"}, "[3]": {"target": "proteases in extracts of adult leafminer flies (Liriomyza trifolii)", "assay": "cell-based or functional assay"}, "cathepsin D [4]": {"target": "T1, cathepsin D (Homo sapiens, UniProt P07339)", "assay": "steady state inhibition of cathepsin D hydrolysis of chromophoric substrate"}, "papain [5]": {"target": "T2, papain (UniProt P00784 134-345)", "T2 construct": "also called cysteine proteinase, papain", "T2 sequence (looked up)": "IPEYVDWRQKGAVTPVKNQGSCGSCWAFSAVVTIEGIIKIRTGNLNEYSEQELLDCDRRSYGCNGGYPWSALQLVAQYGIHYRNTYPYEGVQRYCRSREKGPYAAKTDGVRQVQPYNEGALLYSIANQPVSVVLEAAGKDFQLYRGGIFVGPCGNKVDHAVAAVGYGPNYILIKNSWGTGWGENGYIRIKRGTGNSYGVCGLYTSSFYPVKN", "assay": "continuous rate enzyme inhibition assay with papain"}, "papain [6]": {"target": "T2, papain", "assay": "continuous rate enzyme inhibition assay with papain; Ki = kd/ka"}, "cathepsin D [7]": {"target": "T1, cathepsin D", "assay": "active site titration of cathepsin D with equistatin (FIG. 12)"}, "papain [8]": {"target": "T2, papain", "assay": "papain titration in microtiter plate, Z-Phe-Arg-pNA substrate", "description": "In a microtiterplate 20 µl papain solution (a fresh solution of 1 mg/ml (Sigma) in MES buffer titrated with E-64 to determine the active fraction, usually 17%) is combined with 0–80 µl of known protein concentration. MES buffer (50 mM MES, pH 6.5; 0.6 mg/ml L-cysteine; 1 mg/ml BSA fraction V) is added to a final volume of 150 µl. The mixture is incubated for 30 min at room temperature and subsequently 50 µl of substrate solution (60 µl of 15 mg/ml Z-Phe-Arg-pNA dissolved in methanol is diluted in 940 µl MES buffer before use). The plate is immediately placed in the nicrotiterplate reader and measured at 405 nm. Readings up to an OD600 of 0.3 are linear. Rates of change are used to determine the activity with increasing amounts of inhibitor. Results are graphically represented and at stoichiometric concentrations the amount of dissociated complex is determined to determine the apparent equilibrium dissociation constant (Ki). […] The apparent equilibrium dissociation constant for papain was estimated to be 0.6 nM in agreement with the data published for the purified protein (Lenarcic et al. (1997) J. Biol. Chem. 272: 13899–13903."}, "[9]": {"target": "Colorado potato beetle larval gut proteases (total gut extract, pH 3)", "assay": "cell-based or functional assay"}, "[10]": {"target": "western corn rootworm (Diabrotica virgifera) third instar larval gut proteases", "assay": "cell-based or functional assay"}}, "data": [{"binder": "B1", "values": [{"measurement": "residual protease activity (FITC-hemoglobin), pH 3.5 (% residual activity)", "setting": "[1]", "result": 5}, {"measurement": "residual amino-peptidase activity (L-Arg-pNA), equimolar inhibitor (% of residual activity)", "setting": "[2]", "result": 85}, {"measurement": "residual amino-peptidase activity (L-Arg-pNA), excess inhibitor (% of residual activity)", "setting": "[2]", "result": 75}, {"measurement": "residual broad spectrum endoprotease activity (Z-Phe-Arg-pNA), equimolar inhibitor (% of residual activity)", "setting": "[2]", "result": 30}, {"measurement": "residual broad spectrum endoprotease activity (Z-Phe-Arg-pNA), excess inhibitor (% of residual activity)", "setting": "[2]", "result": 20}, {"measurement": "residual general proteolytic activity (azocasein) in excess of inhibitor (% residual activity)", "setting": "[2]", "result": 10}, {"measurement": "residual narrow spectrum endoprotease activity (Z-Arg-Arg-pNA), equimolar inhibitor (% of residual activity)", "setting": "[2]", "result": 20}, {"measurement": "residual narrow spectrum endoprotease activity (Z-Arg-Arg-pNA), excess inhibitor (% of residual activity)", "setting": "[2]", "result": -5}, {"measurement": "residual tri-peptidil-peptidase and endoprotease activity (pGlu-Phe-Leu-pNA), equimolar inhibitor (% of residual activity)", "setting": "[2]", "result": 10}, {"measurement": "residual tri-peptidil-peptidase and endoprotease activity (pGlu-Phe-Leu-pNA), excess inhibitor (% of residual activity)", "setting": "[2]", "result": -5}, {"measurement": "residual protease activity (FITC-hemoglobin), pH 3.5 (% residual activity)", "setting": "[3]", "result": 24}, {"measurement": "Ki", "setting": "cathepsin D [4]", "result": 0.3, "unit": "nM"}, {"measurement": "koff", "setting": "papain [5]", "result": 0.0065, "unit": "s⁻¹"}, {"measurement": "kon", "setting": "papain [5]", "result": "1.2e+07", "unit": "M⁻¹ s⁻¹"}, {"measurement": "Ki", "setting": "papain [6]", "result": 0.57, "unit": "nM"}, {"measurement": "binding stoichiometry (mol equistatin per mol cathepsin D)", "setting": "cathepsin D [7]", "result": 1}]}, {"binder": "B2", "values": [{"measurement": "Ki", "setting": "papain [8]", "result": 0.6, "unit": "nM"}, {"measurement": "inhibition of total protease activity (FITC-hemoglobin), pH 3", "setting": "[9]", "result": 62, "unit": "% inhibition"}, {"measurement": "residual protease activity (FITC-hemoglobin), pH 3 (% residual activity)", "setting": "[9]", "result": 36}, {"measurement": "residual protease activity (FITC-hemoglobin), pH 3 (% residual activity)", "setting": "[10]", "result": 2}, {"measurement": "residual protease activity (FITC-hemoglobin), pH 6.5 (% residual activity)", "setting": "[10]", "result": 7}]}]}
